The target in the assay is His–CtBP2 (UniProt P56545 1-445). The experiment in a line: ELISA. On the technique in general: In an ELISA, binding on a coated surface is turned into a signal by an enzyme label.

This note sets out measurements from publication PMC6237275 (Chemical science, 2013).

As a reminder, the IC50 is the concentration that inhibits the measured activity by half. A lower IC50 goes with greater potency in that assay. Turning to SGWTVVRMY (cyclic peptide (cyclo-SGWTVVRMY)) [CP61 (cyclo-SGWTVVRMY)], half-maximal inhibition (IC50) required 19 ± 4 µM.
